This note sets out measurements from paper PMC10364585.

In this assay the target is recombinant spider silk protein eADF4(C16). In words: seeded turbidity kinetics at 340 nm; monomeric eADF4(C16) 10-40 uM with 0.5% or 30% (w/w) preformed seeds (sonicated mature fibrils of the same protein), 150 mM KPi pH 8.0, quiescent, 20-40 C; global fit with AmyloFit (secondary nucleation model).

Turning to “recombinant spider silk protein eADF4(C16)”, the rate constant for primary nucleation kn amounted to 1e-09 M⁻¹ s⁻¹.
